From publication PMC12635394, “UBE2O-mediated ubiquitylation directs cytoplasmic CTNNA1 to promote cell-to-ECM adhesions” (EMBO Reports, 2025)

T1: Flag-UBE2O-TwinStrep (purified full-length human UBE2O, wild type) (human, UniProt Q9C0C9 1-1292)
T1 construct: UBE2O, human, full-length WT in N-terminal Flag-tagged and C-terminal TwinStrep-tagged pLV vector; also called Flag-UBE2O-TS; Flag-UBE2O-WT-TwinStrep; source: Expi293F, transfected, purified (Strep-Tactin XT, Superdex 200); not shown: Flag, N-terminal, kept; TwinStrep, C-terminal, kept
T1 sequence (looked up): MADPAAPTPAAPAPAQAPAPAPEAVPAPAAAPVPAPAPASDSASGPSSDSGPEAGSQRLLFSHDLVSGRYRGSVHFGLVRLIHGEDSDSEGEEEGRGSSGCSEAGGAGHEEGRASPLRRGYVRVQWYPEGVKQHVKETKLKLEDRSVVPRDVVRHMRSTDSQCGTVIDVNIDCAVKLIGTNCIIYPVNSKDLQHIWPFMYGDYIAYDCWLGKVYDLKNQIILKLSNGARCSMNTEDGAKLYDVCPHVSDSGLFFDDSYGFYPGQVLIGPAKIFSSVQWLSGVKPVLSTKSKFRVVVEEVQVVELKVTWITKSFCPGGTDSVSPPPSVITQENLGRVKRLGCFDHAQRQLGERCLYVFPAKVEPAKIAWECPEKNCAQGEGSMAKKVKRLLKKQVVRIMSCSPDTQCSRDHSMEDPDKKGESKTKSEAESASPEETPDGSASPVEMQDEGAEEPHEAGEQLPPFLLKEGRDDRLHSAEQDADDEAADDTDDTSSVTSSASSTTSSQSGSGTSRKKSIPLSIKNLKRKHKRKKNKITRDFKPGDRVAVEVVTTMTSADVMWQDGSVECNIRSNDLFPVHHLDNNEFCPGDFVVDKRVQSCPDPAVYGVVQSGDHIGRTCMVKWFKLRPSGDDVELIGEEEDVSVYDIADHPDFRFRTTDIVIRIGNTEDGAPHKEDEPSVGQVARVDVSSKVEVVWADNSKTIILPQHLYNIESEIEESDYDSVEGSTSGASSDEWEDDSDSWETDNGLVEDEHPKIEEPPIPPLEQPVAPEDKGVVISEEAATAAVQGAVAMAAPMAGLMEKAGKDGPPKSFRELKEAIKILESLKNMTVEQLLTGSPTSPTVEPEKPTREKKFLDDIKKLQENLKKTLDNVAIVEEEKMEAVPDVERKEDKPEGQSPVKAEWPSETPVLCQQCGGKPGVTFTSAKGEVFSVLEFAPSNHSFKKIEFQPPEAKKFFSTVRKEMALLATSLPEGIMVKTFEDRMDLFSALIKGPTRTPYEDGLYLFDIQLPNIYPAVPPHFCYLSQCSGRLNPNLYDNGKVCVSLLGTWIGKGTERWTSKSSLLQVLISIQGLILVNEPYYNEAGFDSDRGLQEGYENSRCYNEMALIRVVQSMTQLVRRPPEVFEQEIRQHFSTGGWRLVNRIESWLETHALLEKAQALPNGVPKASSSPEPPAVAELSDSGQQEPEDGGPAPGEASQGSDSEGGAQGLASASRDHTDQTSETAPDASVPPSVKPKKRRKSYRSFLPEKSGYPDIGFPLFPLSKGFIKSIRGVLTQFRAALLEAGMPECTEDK


Assays:
[1] = biological target: T1, Flag-UBE2O-TwinStrep (purified …); experiment: pull-down; 0.1 μM purified Flag-UBE2O-TS mixed with 0.1 μM purified CTNNA1-Myc in lysis buffer, captured on anti-c-Myc magnetic beads, 4 °C, 1.5 h, immunoblot; details: both partners purified
[2] = biological target: T1, Flag-UBE2O-TwinStrep (purified …); experiment: pull-down; 0.1 μM CTNNA1-V5 pre-incubated overnight at 4 °C with 0, 25 or 50 nM His-GST-β-catenin, captured on BSA-blocked V5-Trap beads, washed, then 0.1 μM Flag-UBE2O-TS for 1.5 h at 4 °C, immunoblot; details: both partners purified

Row | binding result [1] | binding result [2] | Binder
1 | binds |  | CTNNA1-Myc (purified mouse CTNNA1 with C-terminal Myc tag) (natural protein, UniProt P26231 1-906, looked up, αE-catenin (CTNNA1), mouse; full-length Ctnna1 in C-terminal Myc-tagged pGEX-6P-1; also called mCTNNA1-Myc; pGEX-6P-1-CTNNA1-Myc; source: E. coli BL21 (DE3), purified (glutathione resin, GST removed with PreScission protease); not shown: Myc, C-terminal, kept) MTAVHAGNINFKWDPKSLEIRTLAVERLLEPLVTQVTTLVNTNSKGPSNKKRGRSKKAHVLAASVEQATENFLEKGDKIAKESQFLKEELVVAVEDVRKQGDLMKSAAGEFADDPCSSVKRGNMVRAARALLSAVTRLLILADMADVYKLLVQLKVVEDGILKLRNAGNEQDLGIQYKALKPEVDKLNIMAAKRQQELKDVGNRDQMAAARGILQKNVPILYTASQACLQHPDVAAYKANRDLIYKQLQQAVTGISNAAQATASDDAAQHQGGSGGELAYALNNFDKQIIVDPLSFSEERFRPSLEERLESIISGAALMADSSCTRDDRRERIVAECNAVRQALQDLLSEYMGNAGRKERSDALNSAIDKMTKKTRDLRRQLRKAVMDHVSDSFLETNVPLLVLIEAAKNGNEKEVKEYAQVFREHANKLIEVANLACSISNNEEGVKLVRMSASQLEALCPQVINAALALAAKPQSKLAQENMDLFKEQWEKQVRVLTDAVDDITSIDDFLAVSENHILEDVNKCVIALQEKDVDGLDRTAGAIRGRAARVIHVVTSEMDNYEPGVYTEKVLEATKLLSNTVMPRFTEQVEAAVEALSSDPAQPMDENEFIDASRLVYDGIRDIRKAVLMIRTPEELDDSDFETEDFDVRSRTSVQTEDDQLIAGQSARAIMAQLPQEQKAKIAEQVASFQEEKSKLDAEVSKWDDSGNDIIVLAKQMCMIMMEMTDFTRGKGPLKNTSDVISAAKKIAEAGSRMDKLGRTIADHCPDSACKQDLLAYLQRIALYCHQLNICSKVKAEVQNLGGELVVSGVDSAMSLIQAAKNLMNAVVQTVKASYVASTKYQKSQGMASLNLPAVSWKMKAPEKKPLVKREKQDETQTKIKRASQKKHVNPVQALSEFKAMDSI
2 |  | binds | CTNNA1-V5 (purified mouse CTNNA1 with C-terminal V5 tag) (natural protein, UniProt P26231 1-906, looked up, αE-catenin (CTNNA1), mouse; full-length Ctnna1 in C-terminal V5-tagged pGEX-6P-1; As the unmodified 'CTNNA1' bait it went through the ubiquitylation reaction without ATP before capture on V5-Trap; also called mCTNNA1-V5; CTNNA1 bait; source: E. coli BL21 (DE3), purified (glutathione resin, GST removed with PreScission protease); not shown: V5, C-terminal, kept) MTAVHAGNINFKWDPKSLEIRTLAVERLLEPLVTQVTTLVNTNSKGPSNKKRGRSKKAHVLAASVEQATENFLEKGDKIAKESQFLKEELVVAVEDVRKQGDLMKSAAGEFADDPCSSVKRGNMVRAARALLSAVTRLLILADMADVYKLLVQLKVVEDGILKLRNAGNEQDLGIQYKALKPEVDKLNIMAAKRQQELKDVGNRDQMAAARGILQKNVPILYTASQACLQHPDVAAYKANRDLIYKQLQQAVTGISNAAQATASDDAAQHQGGSGGELAYALNNFDKQIIVDPLSFSEERFRPSLEERLESIISGAALMADSSCTRDDRRERIVAECNAVRQALQDLLSEYMGNAGRKERSDALNSAIDKMTKKTRDLRRQLRKAVMDHVSDSFLETNVPLLVLIEAAKNGNEKEVKEYAQVFREHANKLIEVANLACSISNNEEGVKLVRMSASQLEALCPQVINAALALAAKPQSKLAQENMDLFKEQWEKQVRVLTDAVDDITSIDDFLAVSENHILEDVNKCVIALQEKDVDGLDRTAGAIRGRAARVIHVVTSEMDNYEPGVYTEKVLEATKLLSNTVMPRFTEQVEAAVEALSSDPAQPMDENEFIDASRLVYDGIRDIRKAVLMIRTPEELDDSDFETEDFDVRSRTSVQTEDDQLIAGQSARAIMAQLPQEQKAKIAEQVASFQEEKSKLDAEVSKWDDSGNDIIVLAKQMCMIMMEMTDFTRGKGPLKNTSDVISAAKKIAEAGSRMDKLGRTIADHCPDSACKQDLLAYLQRIALYCHQLNICSKVKAEVQNLGGELVVSGVDSAMSLIQAAKNLMNAVVQTVKASYVASTKYQKSQGMASLNLPAVSWKMKAPEKKPLVKREKQDETQTKIKRASQKKHVNPVQALSEFKAMDSI
